Target: And-1 HMG domain (UniProt O75717)
Test: FLAG-SepB IP, GST-HMG blot
Settings: reference: wild-type SepB; sites T826

UniProt O75717, sequence (O75717 330-984 T826A): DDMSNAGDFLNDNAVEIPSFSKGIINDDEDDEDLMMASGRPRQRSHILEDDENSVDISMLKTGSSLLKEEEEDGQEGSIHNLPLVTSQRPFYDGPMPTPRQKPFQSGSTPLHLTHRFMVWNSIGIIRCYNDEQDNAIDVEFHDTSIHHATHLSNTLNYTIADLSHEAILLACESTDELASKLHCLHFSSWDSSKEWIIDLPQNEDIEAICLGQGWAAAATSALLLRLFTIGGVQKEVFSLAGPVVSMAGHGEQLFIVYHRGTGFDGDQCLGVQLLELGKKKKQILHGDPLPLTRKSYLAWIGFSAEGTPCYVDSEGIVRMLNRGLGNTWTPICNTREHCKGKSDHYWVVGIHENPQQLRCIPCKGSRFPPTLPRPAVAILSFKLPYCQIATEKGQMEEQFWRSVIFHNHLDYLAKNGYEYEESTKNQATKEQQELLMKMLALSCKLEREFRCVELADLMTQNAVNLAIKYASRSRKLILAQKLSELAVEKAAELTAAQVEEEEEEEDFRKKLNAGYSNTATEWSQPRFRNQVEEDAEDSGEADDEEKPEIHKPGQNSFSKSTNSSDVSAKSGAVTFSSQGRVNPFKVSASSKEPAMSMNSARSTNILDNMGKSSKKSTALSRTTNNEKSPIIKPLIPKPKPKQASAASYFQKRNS

“And-1 SepB domain, 330-984 (from UniProt O75717) SepB T826A” was tested, and the “binding against the reference” value was “stronger”.

Source: paper PMC9481708
